# In US20220402979A1 (AXON NEUROSCIENCE, published 2022):
# Assays:
# Human Tau2N4R = molecular target: T1, Human Tau2N4R; test: SPR; literature table, Jadhav et al. 2019; AVIDITY 'nd.'
# T1 construct: target in SPR of the literature rows
# [1] = molecular target: T2, recombinant human mis-disordered tau protein (tau151-391/4R) (human, UniProt P10636 468-708); test: SPR, target 'Pathological Tau151-391_4R'; literature table, Jadhav et al. 2019; AVIDITY 'nd.'
# T2 construct: No tags are stated; also called pathological tau
# T2 sequence (P10636 468-708): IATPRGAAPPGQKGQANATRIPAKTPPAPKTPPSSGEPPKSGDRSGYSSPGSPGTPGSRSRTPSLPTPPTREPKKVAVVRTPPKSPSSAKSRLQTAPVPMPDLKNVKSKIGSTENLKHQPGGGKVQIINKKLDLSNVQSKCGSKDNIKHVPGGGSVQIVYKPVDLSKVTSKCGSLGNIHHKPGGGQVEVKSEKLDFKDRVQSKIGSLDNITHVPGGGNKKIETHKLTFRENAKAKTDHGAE
# T1 sequence (single chain, as listed by the source limits assumed): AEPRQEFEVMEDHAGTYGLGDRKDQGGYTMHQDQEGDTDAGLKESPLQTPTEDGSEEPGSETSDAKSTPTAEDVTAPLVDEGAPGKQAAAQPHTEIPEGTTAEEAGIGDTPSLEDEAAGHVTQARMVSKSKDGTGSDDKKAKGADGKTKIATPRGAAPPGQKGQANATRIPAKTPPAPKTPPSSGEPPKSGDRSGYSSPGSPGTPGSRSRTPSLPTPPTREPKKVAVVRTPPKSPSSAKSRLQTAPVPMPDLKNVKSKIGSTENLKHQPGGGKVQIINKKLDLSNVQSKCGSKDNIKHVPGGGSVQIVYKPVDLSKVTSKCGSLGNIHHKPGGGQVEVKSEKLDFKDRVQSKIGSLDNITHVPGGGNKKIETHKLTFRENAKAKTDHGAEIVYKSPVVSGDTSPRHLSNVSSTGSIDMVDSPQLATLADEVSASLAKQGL
binder,measurement,setting,value
"DC8E8 (antibody, V domains shown) VH: QVQLQQSGPELVKPGTSVKMPCKASGYIFTDYVISWVKQRTGQGLEWIGEIFPRSGSTYYNEKFKGKATLTADKSSNTAYMQLSSVTSEDSAVYFCARDYYGTSFAMDYWGQGTSVTVSS VL: DIVMSQSPSSLAVSAGEKVTMSCKSSQSLLNSRTRKNYLAWYQQKPGQSPKLLIYWASTRESGVPDRFTGSGSGTDFTLTISSVQAEDLAVYYCKQSFYLRTFGGGTKLDIK",Kd,Human Tau2N4R,91 nM
same,Kd,[1],14 nM
